B1: Spastin (Homo sapiens), Q9UBP0-1 (parent)
chain: MNSPGGRGKKKGSGGASNPVPPRPPPPCLAPAPPAAGPAPPPESPHKRNLYYFSYPLFVGFALLRLVAFHLGLLFVWLCQRFSRALMAAKRSSGAAPAPASASAPAPVPGGEAERVRVFHKQAFEYISIALRIDEDEKAGQKEQAVEWYKKGIEELEKGIAVIVTGQGEQCERARRLQAKMMTNLVMAKDRLQLLEKMQPVLPFSKSQTDVYNDSTNLACRNGHLQSESGAVPKRKDPLTHTSNSLPRSKTVMKTGSAGLSGHHRAPSYSGLSMVSGVKQGSGPAPTTHKGTPKTNRTNKPSTPTTATRKKKDLKNFRNVDSNLANLIMNEIVDNGTAVKFDDIAGQDLAKQALQEIVILPSLRPELFTGLRAPARGLLLFGPPGNGKTMLAKAVAAESNATFFNISAASLTSKYVGEGEKLVRALFAVARELQPSIIFIDEVDSLLCERREGEHDASRRLKTEFLIEFDGVQSAGDDRVLVMGATNRPQELDEAVLRRFIKRVYVSLPNEETRLLLLKNLLCKQGSPLTQKELAQLARMTDGYSGSDLTALAKDAALGPIRELKPEQVKNMSASEMRNIRLSDFTESLKKIKRSVSPQTLEAYIRWNKDFGDTTV

Variants of: B1
Conditions: with fxl17_human FBXL17, Q9UF56
fxl17_human FBXL17, Q9UF56, sequence (Q9UF56 whole entry): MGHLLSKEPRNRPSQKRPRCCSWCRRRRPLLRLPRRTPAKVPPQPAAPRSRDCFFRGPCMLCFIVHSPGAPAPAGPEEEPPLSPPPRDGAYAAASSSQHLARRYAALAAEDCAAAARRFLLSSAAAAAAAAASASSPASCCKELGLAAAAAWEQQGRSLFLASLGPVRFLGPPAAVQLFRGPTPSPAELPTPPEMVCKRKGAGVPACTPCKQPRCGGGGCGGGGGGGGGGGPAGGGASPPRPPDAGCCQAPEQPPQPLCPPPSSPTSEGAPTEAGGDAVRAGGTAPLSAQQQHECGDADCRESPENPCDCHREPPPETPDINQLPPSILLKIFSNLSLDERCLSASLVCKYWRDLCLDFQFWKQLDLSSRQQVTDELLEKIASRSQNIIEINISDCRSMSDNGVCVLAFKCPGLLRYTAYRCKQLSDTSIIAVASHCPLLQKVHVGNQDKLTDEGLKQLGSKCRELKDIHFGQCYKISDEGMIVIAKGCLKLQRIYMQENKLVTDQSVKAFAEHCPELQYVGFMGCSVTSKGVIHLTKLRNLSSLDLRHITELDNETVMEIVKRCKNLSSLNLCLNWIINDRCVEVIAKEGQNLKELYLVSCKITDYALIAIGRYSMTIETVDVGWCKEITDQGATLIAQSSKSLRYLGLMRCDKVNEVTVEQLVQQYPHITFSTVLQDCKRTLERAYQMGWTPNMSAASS
In the case of Y52C, the “effect of a mutation on the interaction” value is reported as “disrupting interaction strength”.
